Where a chain is given by its changes, count along the chain named. In names and notes the source's numbering stands. Several values for one entry are separate records, joined by “and”; a condition that tells them apart may be missing. Identical values can stand only once.

This is an account of results in patent EP2469278A1, “Reagentless fluorescent biosensors from nanofitins, rational design methods to create reagentless fluorescent biosensors and methods of their use” (Institut Pasteur, priority 2010, dated 2012).

B1: Asn9: H4S conjugate: residue Asn9 changed into cysteine and coupled with the IANBD fluorophore (conjugate)
chain: MRGSHHHHHHGSVKVKFFWCGEEKEVDTSKIVWVKRAGKSVLFIYDDNGKNGYGDVTEKDAPKELLDMLARAEREKKLN
B2: Phe7: H4S conjugate: residue Phe7 changed into cysteine and coupled with the IANBD fluorophore (conjugate)
chain: B1 chain with F18C, C20N
B3: Asp44: H4S conjugate: residue Asp44 changed into cysteine and coupled with the IANBD fluorophore (conjugate)
chain: B1 chain with C20N, D55C
B4: Lys28: H4S conjugate: residue Lys28 changed into cysteine and coupled with the IANBD fluorophore (conjugate)
chain: B1 chain with C20N, K39C
B5: Tyr42: H4S conjugate: residue Tyr42 changed into cysteine and coupled with the IANBD fluorophore (conjugate)
chain: B1 chain with C20N, Y53C
B6: Thr46: H4S conjugate: residue Thr46 changed into cysteine and coupled with the IANBD fluorophore (conjugate)
chain: B1 chain with C20N, T57C
B7: Ser29: H4S conjugate: residue Ser29 changed into cysteine and coupled with the IANBD fluorophore (conjugate)
chain: B1 chain with C20N, S40C
B8: Trp22: H4S conjugate: residue Trp22 changed into cysteine and coupled with the IANBD fluorophore (conjugate)
chain: B1 chain with C20N, W33C
B9: Leu31: H4S conjugate: residue Leu31 changed into cysteine and coupled with the IANBD fluorophore (conjugate)
chain: B1 chain with C20N, L42C
B10: Asn40: H4S conjugate: residue Asn40 changed into cysteine and coupled with the IANBD fluorophore (conjugate)
chain: B1 chain with C20N, N51C
B11: Ile33: H4S conjugate: residue Ile33 changed into cysteine and coupled with the IANBD fluorophore (conjugate)
chain: B1 chain with C20N, I44C
B12: Lys39: H4S conjugate: residue Lys39 changed into cysteine and coupled with IANBD (SEQ ID NO: 63) (conjugate)
chain: B1 chain with C20N, K50C
modifications: IANBD fluorophore on Cys39
B13: Trp8: H4S conjugate: residue Trp8 changed into cysteine and coupled with IANBD (SEQ ID NO: 59) (conjugate)
chain: B1 chain with W19C, C20N
modifications: IANBD fluorophore on Cys8
B14: Val21: H4S conjugate: residue Val21 changed into cysteine and coupled with IANBD (SEQ ID NO: 60) (conjugate)
chain: B1 chain with C20N, V32C
modifications: IANBD fluorophore on Cys21
B15: H4S conjugate, IANBD fluorophore coupled at position Asn9 (designed binder)
chain: B1 chain
modifications: Cys at position 9 (H4S numbering) coupled to IANBD ester (ANBD)
B16: H4S conjugate, IANBD fluorophore coupled at position Asp44 (designed binder)
chain: B1 chain with C20N, D55C
modifications: Cys at position 44 (H4S numbering) coupled to IANBD ester (ANBD)
B17: H4S conjugate, IANBD fluorophore coupled at position Asn40 (designed binder)
chain: B1 chain with C20N, N51C
modifications: Cys at position 40 (H4S numbering) coupled to IANBD ester (ANBD)
B18: H4S conjugate, IANBD fluorophore coupled at position Leu31 (designed binder)
chain: B1 chain with C20N, L42C
modifications: Cys at position 31 (H4S numbering) coupled to IANBD ester (ANBD)
B19: H4S conjugate, IANBD fluorophore coupled at position Ser29 (designed binder)
chain: B1 chain with C20N, S40C
modifications: Cys at position 29 (H4S numbering) coupled to IANBD ester (ANBD)
B20: H4S conjugate, IANBD fluorophore coupled at position Lys28 (designed binder)
chain: B1 chain with C20N, K39C
modifications: Cys at position 28 (H4S numbering) coupled to IANBD ester (ANBD)
B21: H4S conjugate, IANBD fluorophore coupled at position Phe7 (designed binder)
chain: B1 chain with F18C, C20N
modifications: Cys at position 7 (H4S numbering) coupled to IANBD ester (ANBD)
B22: H4S conjugate, IANBD fluorophore coupled at position Lys39 (designed binder)
chain: B1 chain with C20N, K50C
modifications: Cys at position 39 (H4S numbering) coupled to IANBD ester (ANBD)

In one assay the target is T1, hen egg-white lysozyme (HEL) (Gallus gallus, UniProt P00698).
T1 construct: hen egg-white lysozyme (HEL); purchased Sigma
Briefly: Titration of H4S conjugates with HEL, monitored by fluorescence. It is filed as binding. The following applies: decrease of free energy of interaction with HEL on fluorophore conjugation, from Kd of conjugate versus H4S(wt). The procedure:
The binding and fluorescence experiments were performed at equilibrium as if the preparations of conjugates were homogeneous, i. e. as if yc = 1. The binding reactions were conducted by incubating 0.3 µM of conjugate with variable concentrations of the HEL or BSA antigens in a volume of 1 mL, for 30 min in the dark with gentle shaking. The reactions were carried out in Buffer C or in a mixture v:(1-v) of calf serum and Buffer C as indicated in example 2.
The conjugate (or biosensor) B and antigen A form a 1:1 complex B:A according to the reaction: B + A↔B:A [formula] At equilibrium, the concentration [B:A] of the complex is given by the equation: [B:A] = 0.5{[B]0+[A]0+Kd-(((([B]0+[A]0+Kd))^2-4[B]0[A]0))^(1/2)} [formula] where Kd is the dissociation constant, and [A]0 and [B]0 are the total concentrations of A and B, respectively (Renard et al., 2003).
The fluorescence of the IANBD conjugates was excited at 485 nm (5 nm slit width) and its intensity measured between 520 and 550 nm (20 nm slit width) with a FP-6300 spectrofluorometer (Jasco). The signal of HEL alone or BSA alone was measured in an independent experiment and subtracted from the global signal of the binding mixture to give the specific fluorescence intensity F of each conjugate. The intensity F at a given value of [A]0 satisfies the following equation: (F-F0)/F0 = ΔF/F0 = (ΔF∞/F0)([B:A]/[B]0) [formula] where F0 and F∞ are the values of F at zero and saturating concentrations of A (Renard et al., 2003). The values of ΔF∞/F0, Kd, and [B]0 could be determined by fitting Equation 5, in which [B:A] is given by Equation 4, to the experimental values of ΔF/F0, measured in a titration experiment. The fittings were performed with the Kaleidagraph software (Synergy Software).
The sensitivity s and relative sensitivity sr of a conjugate can be defined by the following equations for the low values of [A]0, i. e. in the initial part of the titration curve: ΔF = s[A]0 [formula] ΔF/F0 = sr [A]0 /[B]0 [formula] s and sr can be expressed as functions of characteristic parameters of the conjugate: sr = (ΔF∞/F0)([B]0/(Kd+[B]0)) [formula] s = fb sr [formula] where fb = F0/[B]0 is the molar fluorescence of the free conjugate (Renard and Bedouelle, 2004). Equation 8 implies that sr is maximal when the biosensor B is present at a concentration [B]0 >> Kd, as every newly titrated molecule A then forms a complex. Equation 6 implies that the lower limit of detection δ[A]0 of the conjugate is linked to the lower limit of measurement of the spectrofluorometer δF by the following equations: δ[A]0 = s^-1 δF = sr^-1 [B]0 (δF/F0) [formula]
As for B1, the ΔΔG is at most 0.5 kcal/mol.
The same measure, in the same setting: the same measure for B2: at most 0.5 kcal/mol.
Still for that read-out and setting: the same measure for B3: at least 1.5 kcal/mol; for B4: at most 0.5 kcal/mol.
Still for that read-out and setting: the same measure for B5: at least 1.5 kcal/mol; for B6: at most 0.5 kcal/mol.
Consider B7, for which the ΔΔG was at most 0.5 kcal/mol.
Still for that read-out and setting: the same measure for B8: at least 1.5 kcal/mol; for B9: at least 1.5 kcal/mol.
B10: the ΔΔG was at least 1.5 kcal/mol.
Still for that read-out and setting: the same measure for B11: at least 1.5 kcal/mol.

The same assay, now with this note: fluorescence titration with HEL; 0.3 µM conjugate, buffer C, 25 °C; value ± SE of fitting.
A word on the Kd: it is the constant that tells how readily two partners part at equilibrium. As for B11, the Kd result was “nM”.

Staying with this assay, now noted: maximal variation of F at λmax on HEL binding; 0.3 µM conjugate, buffer C, 25 °C; value ± SE of fitting.
In the case of B8, the “ΔF∞/F0” value is listed as 0.3±0.1.
Same read-out and setting: the same measure for B11: “nm”.

The assay is the same for the next values; noted with them: relative sensitivity of the conjugate at a fixed concentration of 0.3 µM (Equation 8), HEL, buffer C.
As for B12, the sr is recorded as 1.16.
The same measure, in the same setting: the same measure for B13: 0.90; for B2: 0.22.
Regarding B3, the sr came out at 0.49.
As to B14, the sr is on record as 3.17.
Still for that read-out and setting: the same measure for B4: 0.24.
Still for that read-out and setting: the same measure for B5: 0.72; for B6: 0.27.
On to B8, for which the sr came out at 0.06.
Same read-out and setting: the result for B9 reads 0.17; that for B10, 0.07.
The same measure, in the same setting: the same measure for B11: “nm”.

A further assay concerns the target T2, hen egg-white lysozyme (hen, UniProt P00698 19-147).
T2 construct: also called HEL
Briefly: fluorescence titration in solution, 0.3 µM conjugate, buffer C, 25 °C.
Settings: not given
As for B15, the Kd worked out at 7 nM and the “ΔF∞/F0 (maximal relative variation of fluorescence on HEL binding)” value came out at 0.52.
Consider B16, for which the equilibrium dissociation constant (Kd) is 623 nM and the “ΔF∞/F0 (maximal relative variation of fluorescence on HEL binding)” value worked out at 1.5.
The like results for B17 were, in that order, 2000 nM and 0.57.
Turning to B18, the dissociation constant (Kd) was found to be 8360 nM and the “ΔF∞/F0 (maximal relative variation of fluorescence on HEL binding)” value stood at 4.9.
Take B19: binding was put at a Kd of 33 nM and the “ΔF∞/F0 (maximal relative variation of fluorescence on HEL binding)” value stood at 0.55.
With B20, the Kd stood at 28 nM and the “ΔF∞/F0 (maximal relative variation of fluorescence on HEL binding)” value was found to be 0.26.
In the case of B21, the affinity, expressed as Kd, was 42 nM and the “ΔF∞/F0 (maximal relative variation of fluorescence on HEL binding)” value worked out at 0.26.
For B22, in that order: 126 nM and 1.65.

The next assay deals with T2, hen egg-white lysozyme. The assay is described as follows: from Kd in solution: fluorescence titration of conjugate against competition Biacore of H4S(wt).
Settings: not given
For orientation: Surface plasmon resonance follows binding to a sensor surface in real time, without labels.
As to B15, the “ΔΔG (conjugate against H4S(wt))” value is at most 0.5 kcal/mol.
On the same count and under the same terms, the same measure for B16: at least 1.5 kcal/mol.
Still for that read-out and setting: the result for B17 reads at least 1.5 kcal/mol; that for B18, at least 1.5 kcal/mol.
On the same count and under the same terms, the same measure for B19: at most 0.5 kcal/mol; for B20: at most 0.5 kcal/mol.
Take B21: the “ΔΔG (conjugate against H4S(wt))” value is at most 0.5 kcal/mol.
Same read-out and setting: the result for B22 reads ≥ 0.5 kcal/mol and ≤ 1.2 kcal/mol.
